Source: patent US8198236B2, “Methods and compositions for the treatment of cancer” (Washington University, priority 2007, dated 2012)

Experiments:
LRP6 [1] = molecular target: T1, LRP6 (Homo sapiens, UniProt O75581); assay: LRP6-mediated 125I-Mesd degradation in LRP6-transduced HT1080 cells; type: cell-based; conditions: 4 hours at 37° C.
T1 construct: expressed in transfected cells; host or cells: human HT1080 cells, retroviral vector pLNCX2
Experimental: Ligand degradation was performed using the methods as described in Li, Y., et al., J. Biol. Chem. 275: 17187-17194, 2000. Briefly, 2×10^5 cells were seeded into 12-well dishes 1 day prior to assay. Pre-warmed assay buffer (minimal Eagle's medium containing 0.6% BSA with radioligand, 0.6 ml/well) was added to cell monolayers in the absence or the presence of unlabeled 500 nM RAP or 500 nM Mesd, followed by incubation for 4 hours at 37° C. Thereafter, the medium overlying the cell monolayers was removed and proteins were precipitated by addition of BSA to 10 mg/ml and trichloroacetic acid to 20%. Degradation of radioligand was defined as the appearance of radioactive fragments in the overlying medium that were soluble in 20% trichloroacetic acid. Kinetic analysis of endocytosis LRP6-transduced HT1080 cells were plated in 12-well plates at a density of 2×10^5 cells/well and used after overnight culture. Cells were rinsed twice in ice-cold assay buffer (minimal Eagle's medium containing 0.6% BSA), and ^125I-anti-HA IgG was added at 1 nM final concentration in cold assay buffer (0.5 ml/well). The binding of ^125I-anti-HA IgG was carried out at 4° C. for 90 minutes with gentle rocking Unbound ^125I-anti-HA IgG was removed by washing cell monolayers three times with cold assay buffer. Ice-cold stop/strip solution (0.2 M acetic acid, pH 2.6, 0.1 M NaCl) was added to one set of plates without warming up and kept on ice. The remaining plates were then placed in a 37° C. water bath and 0.5 ml assay buffer prewarmed to 37° C. was quickly added to cell monolayers to initiate internalization. After each time point, the plates were quickly placed on ice and the assay buffer was replaced with cold stop/strip solution. ^125I-anti-HA IgG that remained on the cell surface was stripped by incubation of cell monolayers with cold stop/strip solution for a total of 20 minutes (0.75 ml for 10 minutes, twice) and counted. Cell monolayers were then solubilized with low-SDS lysis buffer and counted. […] The fraction of internalized ^125I-anti-HA IgG after each time point was calculated and plotted. […]

LRP6 [2] = molecular target: T1, LRP6; assay: LRP6-mediated 125I-DKK1 degradation in LRP6-transduced HT1080 cells; type: cell-based; conditions: 500 nM unlabeled, 4 hours at 37° C.
Experimental: Ligand degradation was performed using the methods as described in Li, Y., et al., J. Biol. Chem. 275: 17187-17194, 2000. Briefly, 2×10^5 cells were seeded into 12-well dishes 1 day prior to assay. Pre-warmed assay buffer (minimal Eagle's medium containing 0.6% BSA with radioligand, 0.6 ml/well) was added to cell monolayers in the absence or the presence of unlabeled 500 nM RAP or 500 nM Mesd, followed by incubation for 4 hours at 37° C. Thereafter, the medium overlying the cell monolayers was removed and proteins were precipitated by addition of BSA to 10 mg/ml and trichloroacetic acid to 20%. […] After each time point, the plates were quickly placed on ice and the assay buffer was replaced with cold stop/strip solution. ^125I-anti-HA IgG that remained on the cell surface was stripped by incubation of cell monolayers with cold stop/strip solution for a total of 20 minutes (0.75 ml for 10 minutes, twice) and counted. Cell monolayers were then solubilized with low-SDS lysis buffer and counted. […] The fraction of internalized ^125I-anti-HA IgG after each time point was calculated and plotted.
RAP is a receptor antagonist for members of the LDLR family, and is able to inhibit the binding of most known ligands of the LDLR family members. […] Cell-surface-bound Myc-tagged DKK proteins were fixed and detected by immunofluorescence staining with anti-Myc antibody. […]

LRP6 [3] = molecular target: T1, LRP6; assay: Cell surface Myc-DKK1 binding and immunodetection on LRP6-transduced HT1080 cells; conditions: 1 μM Mesd, immunofluorescence
Source text: Human DKK1 cDNA (clone MGC:868, IMAGE:3508222) was obtained from Invitrogen and subcloned into pcDNA3 (EcoRI/XbaI). To facilitate immunodetection, a c-Myc epitope was included at the C-terminus. The integrity of the subcloned DNA sequence was confirmed by DNA sequencing. Human DKK1-conditioned media were produced by transient transfection of HEK293 cells with pcDNADKK1-Myc in serum-free medium, and allowed to bind to LRP6-transduced HT1080 cells and control cells at room temperature for 60 minutes in the absence or presence of 1 μM Mesd. Cells were then fixed in 4% paraformaldehyde, labeled with anti-Myc monoclonal antibody and detected with Alexa-488 goat anti-mouse IgG. The immunofluorescence was detected by a laser-scanning confocal microscope (Olympus Fluoview 500).
RAP is a receptor antagonist for members of the LDLR family, and is able to inhibit the binding of most known ligands of the LDLR family members. DKK1 is an LRP6-specific ligand and antagonist. […] In these experiments, Serum-free conditioned medium was harvested from HEK293 cells transiently transfected with cDNA for human Myc-DKK1 and allowed to bind to LRP6-transduced HT1080 cells (B,C) and control cells (A) in the absence (A,B) or presence (C) of 1 μM Mesd. Cell-surface-bound Myc-tagged DKK proteins were fixed and detected by immunofluorescence staining with anti-Myc antibody. […]

T1 sequence (O75581 20-1613): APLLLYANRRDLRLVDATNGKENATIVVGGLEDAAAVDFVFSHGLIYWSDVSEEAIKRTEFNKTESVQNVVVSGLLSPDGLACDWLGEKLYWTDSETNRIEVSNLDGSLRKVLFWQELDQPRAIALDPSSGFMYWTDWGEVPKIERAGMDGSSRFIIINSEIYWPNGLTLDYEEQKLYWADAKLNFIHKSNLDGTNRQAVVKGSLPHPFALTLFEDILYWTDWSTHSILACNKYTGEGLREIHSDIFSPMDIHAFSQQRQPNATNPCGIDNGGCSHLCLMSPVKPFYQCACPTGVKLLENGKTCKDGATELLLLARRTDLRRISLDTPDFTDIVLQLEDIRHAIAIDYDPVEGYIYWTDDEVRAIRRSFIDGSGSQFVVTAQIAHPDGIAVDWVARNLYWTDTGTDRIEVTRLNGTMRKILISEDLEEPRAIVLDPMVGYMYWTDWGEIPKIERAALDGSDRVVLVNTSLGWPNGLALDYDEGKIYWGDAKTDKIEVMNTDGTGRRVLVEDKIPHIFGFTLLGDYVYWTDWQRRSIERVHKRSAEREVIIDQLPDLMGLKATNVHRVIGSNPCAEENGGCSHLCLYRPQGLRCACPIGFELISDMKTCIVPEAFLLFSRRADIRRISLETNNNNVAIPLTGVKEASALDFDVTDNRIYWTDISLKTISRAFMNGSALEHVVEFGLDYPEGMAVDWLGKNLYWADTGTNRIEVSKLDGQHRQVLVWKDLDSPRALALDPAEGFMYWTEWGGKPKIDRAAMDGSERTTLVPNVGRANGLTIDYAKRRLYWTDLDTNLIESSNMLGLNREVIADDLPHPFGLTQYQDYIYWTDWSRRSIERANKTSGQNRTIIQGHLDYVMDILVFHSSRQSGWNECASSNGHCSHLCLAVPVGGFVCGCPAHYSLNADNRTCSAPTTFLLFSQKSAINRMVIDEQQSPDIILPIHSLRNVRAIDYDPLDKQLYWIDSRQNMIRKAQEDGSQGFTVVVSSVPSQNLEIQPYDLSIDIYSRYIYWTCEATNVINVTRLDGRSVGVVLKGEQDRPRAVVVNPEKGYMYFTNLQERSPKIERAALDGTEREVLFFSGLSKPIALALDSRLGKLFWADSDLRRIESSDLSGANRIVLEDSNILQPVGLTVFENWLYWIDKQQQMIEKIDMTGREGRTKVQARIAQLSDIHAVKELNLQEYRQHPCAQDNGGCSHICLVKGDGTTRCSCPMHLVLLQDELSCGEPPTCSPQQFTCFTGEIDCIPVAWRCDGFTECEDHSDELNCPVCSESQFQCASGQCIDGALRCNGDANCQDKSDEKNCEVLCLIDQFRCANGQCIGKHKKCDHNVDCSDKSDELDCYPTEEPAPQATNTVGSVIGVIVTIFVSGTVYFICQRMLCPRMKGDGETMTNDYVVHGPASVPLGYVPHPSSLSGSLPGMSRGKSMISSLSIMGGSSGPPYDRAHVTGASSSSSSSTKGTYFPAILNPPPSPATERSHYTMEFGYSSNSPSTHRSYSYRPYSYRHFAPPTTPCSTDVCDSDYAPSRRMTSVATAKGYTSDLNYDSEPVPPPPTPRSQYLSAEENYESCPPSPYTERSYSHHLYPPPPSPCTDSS

B1: Mesd: Recombinant full-length mouse Mesd expressed in E. coli, N-terminal polyhistidine tail, lacking the signal peptide (protein)
chain: ADTPGEATPPPRKKKDIRDYNDADMARLLEQWEKDDDIEEGDLPEHKRPSAPIDFSKLDPGKPESILKMTKKGKTLMMFVTVSGNPTEKETEEITSLWQGSLFNANYDVQRFIVGSDRAIFMLRDGSYAWEIKDFLVSQDRCAEVTLEGQMYPGKGGGSKEKNKTKPEKAKKKEGDRKPRASKEDNRAGSRREDL
modifications: left off: small tags and cut ends
notes: Recombinant full-length mouse Mesd expressed in E. coli, N-terminal polyhistidine tail, lacking the signal peptide
125I-Mesd degradation (LRP6 [1]; 5 nM): 320 fmoles/mg cell protein
Inhibition of 125I-Mesd degradation (LRP6 [1]; 500 nM unlabeled competitor): completely
Effect on increased 125I-DKK1 degradation of LRP6-expressing HT1080 cells (LRP6 [2]): abolished
Binding of Myc-DKK1 to LRP6 at the cell surface (LRP6 [3]): completely blocked
